B1: Autophagy-related protein 18 (Saccharomyces cerevisiae), P43601 (parent)
chain: MSDSSPTINFINFNQTGTCISLGTSKGFKIFNCEPFGKFYSEDSGGYAIVEMLFSTSLLALVGIGDQPALSPRRLRIINTKKHSIICEVTFPTSILSVKMNKSRLVVLLQEQIYIYDINTMRLLHTIETNPNPRGLMAMSPSVANSYLVYPSPPKVINSEIKAHATTNNITLSVGGNTETSFKRDQQDAGHSDISDLDQYSSFTKRDDADPTSSNGGNSSIIKNGDVIVFNLETLQPTMVIEAHKGEIAAMAISFDGTLMATASDKGTIIRVFDIETGDKIYQFRRGTYATRIYSISFSEDSQYLAVTGSSKTVHIFKLGHSMSNNKLDSDDSNMEEAAADDSSLDTTSIDALSDEENPTRLAREPYVDASRKTMGRMIRYSSQKLSRRAARTLGQIFPIKVTSLLESSRHFASLKLPVETNSHVMTISSIGSPIDIDTSEYPELFETGNSASTESYHEPVMKMVPIRVVSSDGYLYNFVMDPERGGDCLILSQYSILMD

Variants of: B1
Conditions: with atg2_yeast ATG2, P53855
atg2_yeast ATG2, P53855, sequence (P53855 whole entry): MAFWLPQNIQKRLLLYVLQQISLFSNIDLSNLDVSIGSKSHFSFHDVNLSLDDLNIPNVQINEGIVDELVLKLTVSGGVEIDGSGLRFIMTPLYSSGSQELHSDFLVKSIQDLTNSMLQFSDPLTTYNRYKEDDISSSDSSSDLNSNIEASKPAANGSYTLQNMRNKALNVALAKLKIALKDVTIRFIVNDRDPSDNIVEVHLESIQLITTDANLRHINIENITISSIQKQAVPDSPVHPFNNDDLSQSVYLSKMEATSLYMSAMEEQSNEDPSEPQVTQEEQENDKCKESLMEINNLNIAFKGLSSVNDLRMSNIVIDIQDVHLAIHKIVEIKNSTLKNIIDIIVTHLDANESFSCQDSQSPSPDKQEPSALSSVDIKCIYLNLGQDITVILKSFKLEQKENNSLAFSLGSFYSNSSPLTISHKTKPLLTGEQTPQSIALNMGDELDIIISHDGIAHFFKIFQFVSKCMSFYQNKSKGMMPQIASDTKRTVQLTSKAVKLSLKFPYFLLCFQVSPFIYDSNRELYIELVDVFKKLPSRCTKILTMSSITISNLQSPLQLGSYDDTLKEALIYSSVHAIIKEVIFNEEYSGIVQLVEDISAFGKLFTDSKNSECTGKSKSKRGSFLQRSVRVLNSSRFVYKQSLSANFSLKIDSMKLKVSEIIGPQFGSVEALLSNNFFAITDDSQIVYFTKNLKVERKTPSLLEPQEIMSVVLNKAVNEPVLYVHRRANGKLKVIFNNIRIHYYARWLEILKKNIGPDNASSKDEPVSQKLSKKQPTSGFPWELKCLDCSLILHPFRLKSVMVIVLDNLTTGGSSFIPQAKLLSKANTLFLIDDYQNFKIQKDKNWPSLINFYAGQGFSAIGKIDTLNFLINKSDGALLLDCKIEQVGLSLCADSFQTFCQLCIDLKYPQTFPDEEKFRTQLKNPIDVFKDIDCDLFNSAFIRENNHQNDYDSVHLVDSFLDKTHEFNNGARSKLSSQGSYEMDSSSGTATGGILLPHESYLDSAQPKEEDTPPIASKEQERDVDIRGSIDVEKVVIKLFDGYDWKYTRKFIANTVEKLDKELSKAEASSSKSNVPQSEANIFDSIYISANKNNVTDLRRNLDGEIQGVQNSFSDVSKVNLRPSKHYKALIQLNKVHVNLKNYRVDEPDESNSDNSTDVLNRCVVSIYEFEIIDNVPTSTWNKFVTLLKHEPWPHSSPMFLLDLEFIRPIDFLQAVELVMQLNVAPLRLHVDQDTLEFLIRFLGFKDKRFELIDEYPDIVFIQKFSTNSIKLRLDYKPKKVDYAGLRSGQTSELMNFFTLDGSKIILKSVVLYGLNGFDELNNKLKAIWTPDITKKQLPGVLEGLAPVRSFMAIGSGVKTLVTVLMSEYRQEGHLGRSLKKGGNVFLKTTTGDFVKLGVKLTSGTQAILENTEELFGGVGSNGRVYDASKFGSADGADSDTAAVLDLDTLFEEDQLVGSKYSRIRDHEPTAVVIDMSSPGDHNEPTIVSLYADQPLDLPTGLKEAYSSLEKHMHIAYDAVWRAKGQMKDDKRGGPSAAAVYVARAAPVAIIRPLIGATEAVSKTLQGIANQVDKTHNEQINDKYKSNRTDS

| Variant | effect of a mutation on the interaction |
| --- | --- |
| MSDSSPTINFINFNQTGTCISLGTSKGFKIFNCEPFGKFYSAAAGGAAIVEMLFSTSLLALVGIGDQPALSPRRLRIINTKKHSIICEVAAAAAILSVKMNKSRLVVLLQEQIYIYDINTMRLLHTIETNPNPRGLMAMSPSVANSYLVYPSPPKVINSEIKAHATTNNITLSVGGNTETSFKRDQQDAGHSDISDLDQYSSFTKRDDADPTSSNGGNSSIIKNGDVIVFNLETLQPTMVIEAHKGEIAAMAISFDGTLMATASDKGTIIRVFDIETGDKIYQFRRGTYATRIYSISFSEDSQYLAVTGSSKTVHIFKLGHSMSNNKLDSDDSNMEEAAADDSSLDTTSIDALSDEENPTRLAREPYVDASRKTMGRMIRYSSQKLSRRAARTLGQIFPIKVTSLLESSRHFASLKLPVETNSHVMTISSIGSPIDIDTSEYPELFETGNSASTESYHEPVMKMVPIRVVSSDGYLYNFVMDPERGGDCLILSQYSILMD [E42A;D43A;S44A;Y47A;T90A;F91A;P92A;T93A;S94A] | disrupting interaction strength |

Variants of: B1
Conditions: with atg2_yeast ATG2, P53855
Remark: another data set of the same source

| Variant | effect of a mutation on the interaction |
| --- | --- |
| MSDSSPTINFINFNQTGTCISLGTSKGFKIFNCEPFGKFYSEDSGGYAIVEMLFSTSLLALVGIGDQPALSPRRLRIINTKKHSIICEVTFPTSILSVKMNKSRLVVLLQEQIYIYDINTMRLLHTIETNPNPRGLMAMSPSVANSYLVYPSPPKVINSEIKAHATTNNITLSVGGNTETSFKRDQQDAGHSDISDLDQYSSFTKRDDADPTSSNGGNSSIIKNGDVIVFNLETLQPTMVIEAHKGEIAAMAISFDGTLMATASDKGTIIRVFDIETGDKIYQFAAGTYATRIYSISFSEDSQYLAVTGSSKTVHIFKLGHSMSNNKLDSDDSNMEEAAADDSSLDTTSIDALSDEENPTRLAREPYVDASRKTMGRMIRYSSQKLSRRAARTLGQIFPIKVTSLLESSRHFASLKLPVETNSHVMTISSIGSPIDIDTSEYPELFETGNSASTESYHEPVMKMVPIRVVSSDGYLYNFVMDPERGGDCLILSQYSILMD [R285A;R286A] | disrupting interaction strength |

Variants of: B1
Conditions: with atg2_yeast ATG2, P53855
Remark: another data set of the same source

| Variant | effect of a mutation on the interaction |
| --- | --- |
| MSDSSPTINFINFNQTGTCISLGTSKGFKIFNCEPFGKFYSEDSGGYAIVEMLFSTSLLALVGIGDQPALSPRRLRIINTKKHSIICEVAAAAAILSVKMNKSRLVVLLQEQIYIYDINTMRLLHTIETNPNPRGLMAMSPSVANSYLVYPSPPKVINSEIKAHATTNNITLSVGGNTETSFKRDQQDAGHSDISDLDQYSSFTKRDDADPTSSNGGNSSIIKNGDVIVFNLETLQPTMVIEAHKGEIAAMAISFDGTLMATASDKGTIIRVFDIETGDKIYQFRRGTYATRIYSISFSEDSQYLAVTGSSKTVHIFKLGHSMSNNKLDSDDSNMEEAAADDSSLDTTSIDALSDEENPTRLAREPYVDASRKTMGRMIRYSSQKLSRRAARTLGQIFPIKVTSLLESSRHFASLKLPVETNSHVMTISSIGSPIDIDTSEYPELFETGNSASTESYHEPVMKMVPIRVVSSDGYLYNFVMDPERGGDCLILSQYSILMD [T90A;F91A;P92A;T93A;S94A] | decreasing interaction strength |

— IntAct's records for PubMed 23230146
